In patent US10428140B2, “Anti-EphA4 antibody” (EISAI R&D MANAGEMENT CO., LTD., priority 2015, dated 2019):
Residue numbers refer to the chain shown, from its start.

T1: human EphA10 (Homo sapiens, UniProt Q5JZY3)
T1 construct: a protein of the extracellular region of each human Eph receptor fused with the SEAP protein and the His tag; made in house; host or cells: Expi293F cells (culture supernatant)
T1 sequence (Q5JZY3 34-565 limits assumed): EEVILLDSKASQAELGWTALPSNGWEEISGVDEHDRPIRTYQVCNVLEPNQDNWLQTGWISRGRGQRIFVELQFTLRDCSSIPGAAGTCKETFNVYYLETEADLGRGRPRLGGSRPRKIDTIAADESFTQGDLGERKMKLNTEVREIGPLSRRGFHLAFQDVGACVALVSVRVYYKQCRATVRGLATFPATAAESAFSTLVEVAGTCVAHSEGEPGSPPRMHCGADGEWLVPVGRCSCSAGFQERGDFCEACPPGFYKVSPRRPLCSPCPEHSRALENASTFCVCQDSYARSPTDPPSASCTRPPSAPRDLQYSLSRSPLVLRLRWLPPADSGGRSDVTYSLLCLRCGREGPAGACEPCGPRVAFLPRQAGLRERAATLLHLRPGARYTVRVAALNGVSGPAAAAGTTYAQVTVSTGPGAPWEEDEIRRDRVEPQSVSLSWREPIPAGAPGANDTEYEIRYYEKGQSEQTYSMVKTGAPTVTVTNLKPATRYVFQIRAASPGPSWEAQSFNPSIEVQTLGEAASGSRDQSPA

T2: human EphA7 (Homo sapiens, UniProt Q15375)
T2 construct: a protein of the extracellular region of each human Eph receptor fused with the SEAP protein and the His tag; made in house; host or cells: Expi293F cells (culture supernatant)
T2 sequence (Q15375 28-555 limits assumed): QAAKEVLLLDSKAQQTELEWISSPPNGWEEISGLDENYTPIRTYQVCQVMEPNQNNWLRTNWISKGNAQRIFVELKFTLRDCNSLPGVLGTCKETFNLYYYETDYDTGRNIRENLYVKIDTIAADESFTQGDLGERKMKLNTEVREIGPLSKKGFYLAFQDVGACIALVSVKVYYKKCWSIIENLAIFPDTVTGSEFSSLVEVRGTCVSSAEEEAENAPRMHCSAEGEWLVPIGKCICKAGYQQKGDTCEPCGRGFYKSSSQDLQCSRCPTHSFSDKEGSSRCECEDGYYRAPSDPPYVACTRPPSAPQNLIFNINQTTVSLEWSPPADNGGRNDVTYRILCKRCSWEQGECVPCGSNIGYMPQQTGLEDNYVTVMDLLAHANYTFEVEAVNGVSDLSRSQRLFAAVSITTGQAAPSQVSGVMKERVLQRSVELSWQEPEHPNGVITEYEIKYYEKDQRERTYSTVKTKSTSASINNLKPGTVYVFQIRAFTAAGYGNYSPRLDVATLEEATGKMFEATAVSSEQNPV

T3: human EphA6 (Homo sapiens, UniProt Q9UF33)
T3 construct: a protein of the extracellular region of each human Eph receptor fused with the SEAP protein and the His tag; made in house; host or cells: Expi293F cells (culture supernatant)
T3 sequence (Q9UF33 23-550 limits assumed): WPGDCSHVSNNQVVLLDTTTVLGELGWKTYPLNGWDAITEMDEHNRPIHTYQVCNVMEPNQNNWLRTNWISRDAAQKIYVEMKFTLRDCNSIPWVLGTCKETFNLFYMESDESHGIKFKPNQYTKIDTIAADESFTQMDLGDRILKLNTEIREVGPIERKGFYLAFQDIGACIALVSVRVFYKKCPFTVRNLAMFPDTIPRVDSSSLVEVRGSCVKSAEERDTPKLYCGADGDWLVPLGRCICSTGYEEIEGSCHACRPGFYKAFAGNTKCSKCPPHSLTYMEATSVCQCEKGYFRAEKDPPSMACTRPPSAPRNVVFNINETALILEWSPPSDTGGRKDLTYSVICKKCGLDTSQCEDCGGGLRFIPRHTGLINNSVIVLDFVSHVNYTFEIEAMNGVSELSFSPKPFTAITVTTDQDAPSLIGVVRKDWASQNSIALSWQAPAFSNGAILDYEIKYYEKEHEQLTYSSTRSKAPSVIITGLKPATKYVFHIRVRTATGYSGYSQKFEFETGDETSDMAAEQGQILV

B1: 90 (antibody, V domains shown)
VL: DIQMTQSPSSLSASVGDRVTITCRASENIYRNLAWYQQKPGKAPQLLLYAATNLADGVPSRFSGSGSGTDYTLTISSLQPEDFATYYCQHFWGTPWTFGQGTKVEIK
VH: QVQLVQSGSELKKPGASVKVSCKASGYTFTDYSMHWVRQAPGQGLEWMGWINTETGEPTYADDFKGRFVFSLDTSVSTAYLQISSLKAEDTAVYYCARIPLYYYGSRYWYFDVWGQGTTVTVSS
modifications: constant regions without entry; synthetic humanized antibody light chain variable region sequence; synthetic humanized antibody heavy chain variable region sequence
B2: 93 (antibody, V domains shown)
VL: EIVMTQSPATLSVSPGERATLSCRASENIYRNLAWYQQKPGQSPRLLIYAATNLADGIPARFSGSGSGTEYTLTISSLQSEDFAVYYCQHFWGTPWTFGQGTKVEIK
VH: B1 VH with D62Q, D63G, K65T
modifications: constant regions without entry; synthetic humanized antibody light chain variable region sequence; synthetic humanized antibody heavy chain variable region sequence
B3: 96 (antibody, V domains shown)
VL: B2 VL
VH: B1 VH with E46K
modifications: constant regions without entry; synthetic humanized antibody light chain variable region sequence; synthetic humanized antibody heavy chain variable region sequence
B4: 92 (antibody, V domains shown)
VL: B1 VL
VH: B1 VH with V2I, E46K
modifications: constant regions without entry; synthetic humanized antibody light chain variable region sequence; synthetic humanized antibody heavy chain variable region sequence
B5: 71 (antibody, V domains shown)
VH: B1 VH with V2I, E46K, D62Q, D63G, K65T
VL: B2 VL
modifications: synthetic humanized antibody heavy chain variable region sequence; synthetic humanized antibody light chain variable region sequence
B6: 91 (antibody, V domains shown)
VL: B1 VL
VH: B1 VH with E46K
modifications: constant regions without entry; synthetic humanized antibody light chain variable region sequence; synthetic humanized antibody heavy chain variable region sequence
B7: 73 (antibody, V domains shown)
VH: B1 VH with V2I, E46K
VL: B2 VL
modifications: synthetic humanized antibody heavy chain variable region sequence; synthetic humanized antibody light chain variable region sequence
B8: 94 (antibody, V domains shown)
VL: B2 VL
VH: B1 VH with E46K, D62Q, D63G, K65T
modifications: constant regions without entry; synthetic humanized antibody light chain variable region sequence; synthetic humanized antibody heavy chain variable region sequence
B9: 95 (antibody, V domains shown)
VL: B2 VL
VH: B1 VH
modifications: constant regions without entry; synthetic humanized antibody light chain variable region sequence; synthetic humanized antibody heavy chain variable region sequence

biological target: T4, human EphA2 (Homo sapiens, UniProt P29317); assay: Selectivity ELISA of humanized antibodies for human Eph receptor; format: binding; conditions: coated protein 1 nM
T4 construct: a protein of the extracellular region of each human Eph receptor fused with the SEAP protein and the His tag; made in house; host or cells: Expi293F cells (culture supernatant)
Procedure, shortened: (§1)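 Capture ELISA: anti-6-His coat, 1% BlockAce block, Eph ECD-SEAP-His (1 nM final, Expi293F supernatant) 1 h RT, humanized Ab 1 h RT, HRP anti-IgG 1 h RT, TMB, H2SO4 stop, A450.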

T4 sequence (P29317 24-537 limits assumed): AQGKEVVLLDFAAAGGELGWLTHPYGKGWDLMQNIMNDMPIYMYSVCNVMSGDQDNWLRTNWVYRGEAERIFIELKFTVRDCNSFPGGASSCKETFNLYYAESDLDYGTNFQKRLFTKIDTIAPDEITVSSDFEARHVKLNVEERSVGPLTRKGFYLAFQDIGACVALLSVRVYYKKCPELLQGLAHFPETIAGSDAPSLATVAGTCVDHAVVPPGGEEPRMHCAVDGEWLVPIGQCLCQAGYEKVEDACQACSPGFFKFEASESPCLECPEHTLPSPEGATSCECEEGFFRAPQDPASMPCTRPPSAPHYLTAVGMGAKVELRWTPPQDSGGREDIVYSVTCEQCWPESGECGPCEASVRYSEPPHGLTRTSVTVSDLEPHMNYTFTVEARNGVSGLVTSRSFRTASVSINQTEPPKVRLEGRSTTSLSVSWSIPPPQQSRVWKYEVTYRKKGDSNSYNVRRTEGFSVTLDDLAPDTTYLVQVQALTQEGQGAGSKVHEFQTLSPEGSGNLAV

hEphA2-SEAP-: absorbance at 450 nm, percentage with respect to hEphA4-SEAP-His as 100%	Molecule
5.2%	B1
5.0%	B2
5.3%	B3
6.9%	B4
5.7%	B5
6.1%	B6
5.7%	B7
6.4%	B8
4.2%	B9

biological target: T1, human EphA10; assay: as above; format: binding; conditions: coated protein 1 nM
Procedure, shortened: as §1

hEphA10-SEAP-: absorbance at 450 nm, percentage with respect to hEphA4-SEAP-His as 100%	Molecule
5.1%	B1
4.9%	B2
5.3%	B3
6.6%	B4
5.3%	B5
8.5%	B6
5.6%	B7
6.4%	B8
4.5%	B9

biological target: T2, human EphA7; assay: as above; format: binding; conditions: coated protein 1 nM
Procedure, shortened: as §1

hEphA7-SEAP-: absorbance at 450 nm, percentage with respect to hEphA4-SEAP-His as 100%	Molecule
4.9%	B1
4.9%	B2
5.3%	B3
6.4%	B4
5.2%	B5
5.6%	B6
5.6%	B7
6.1%	B8
4.4%	B9

biological target: T3, human EphA6; assay: as above; format: binding; conditions: coated protein 1 nM
Procedure, shortened: as §1

hEphA6-SEAP-: absorbance at 450 nm, percentage with respect to hEphA4-SEAP-His as 100%	Molecule
7.6%	B1
7.1%	B2
9.8%	B3
9.6%	B4
9.2%	B5
8.8%	B6
7.4%	B7
8.6%	B8
7.0%	B9
